Data from article PMC5994897.

What was measured:
[1] = target: yeast αβ-tubulin (wild type) (yeast (overexpressed in S. cerevisiae)) (UniProt P09733); assay: AUC
[2] = target: Yeast tubulin with a C-terminal … tag, ReAsH-labeled (yeast (overexpressed in S. cerevisiae)) (UniProt P09733); assay: TIRF microscopy microtubule-binding titration

Row | Kd [1] [µM] | Kd [2] [µM] | Molecule
1 | 1.68 | – | Stu1-TOG2 (305-567) (from UniProt P38198 305-567) (domain or fragment)
2 | – | 40 | Alexa-488-labeled Stu1-TOG1 with a KCK tag (domain or fragment, Alexa-488 label) NSNTNTHPDDSFPLYTVFKDESVPIEEKMALLTRFKGHVKKELVNESSIQAYFAALLFISGHYAYRSYPRLIFLSHSSLCYLIKRVAMQSPVQFNDTLVEQLLNHLIFELPNEKKFWLASIKAIEAIYLVNPSKIQAILANFLRRPSENQNGDYLNRIKSTLLTIDELIQINEKNNSNHLQLLRFFMLSFTNLLNNNLNEHANDDNNNVIIELIFDIMYKYLKMDDENSQDLIDGFINDLEVEKFKQKFISLAKSQDQHGSQEDKS
3 | – | 12 | Alexa-488-labeled Stu1-TOG2 with a KCK tag (domain or fragment, Alexa-488 label) DPAMKKNYESLNQLQQDLENLLAPFQSVKETEQNWKLRQSNIIELDNIISGNIPKDNPEEFVTVIKEVQLIELISRATSSLRTTLSLTALLFLKRLIHILNDQLPLSILDQIFVIFKNLLSSTKKISSQTAFHCLITLIIDINHFHNKLFQLSFLLINEKTVTPRFCSAILLRSFLIKFNDSNLSLNNSNTTSPTSKLENNIIYIEEWLKKGISDSQTTVREAMRLTFWYFYKCYPTNAKRLLSSSFSPQLKKATELAIPAHL
